Assay results taken from patent publication US20130209454A1.

What was measured:
Assay in all cases: cell-based or functional assay
[1] = molecular target: HIV-1 Env of strain 6535.3 (HIV-1)
[2] = molecular target: HIV-1 Env of strain X1254_c3 (HIV-1)
[3] = molecular target: HIV-1 Env of strain ZM249M.PL1 (HIV-1)
[4] = molecular target: HIV-1 Env of strain T255-34 (HIV-1)
[5] = molecular target: HIV-1 Env of strain Ce703010054_2A2 (HIV-1)
[6] = molecular target: HIV-1 Env of strain Q769.d22 (HIV-1)
[7] = molecular target: HIV-1 Env of strain 620345.c01 (HIV-1)
[8] = molecular target: HIV-1 Env of strain CAP210.2.00.E8 (HIV-1)
[9] = molecular target: HIV-1 Env of strain Ce1176_A3 (HIV-1)
[10] = molecular target: HIV-1 Env of strain 0815.v3.c3 (HIV-1)
[11] = molecular target: HIV-1 Env of strain T251-18 (HIV-1)
[12] = molecular target: HIV-1 Env of strain 3415.v1.c1 (HIV-1)
[13] = molecular target: HIV-1 Env of strain 1006_11_C3_1601 (HIV-1)
[14] = molecular target: HIV-1 Env of strain REJO4541.67 (HIV-1)
[15] = molecular target: HIV-1 Env of strain T278-50 (HIV-1)
[16] = molecular target: HIV-1 Env of strain 231966.c02 (HIV-1)
[17] = molecular target: HIV-1 Env of strain QH0692.42 (HIV-1)
[18] = molecular target: HIV-1 Env of strain Q842.d12 (HIV-1)
[19] = molecular target: HIV-1 Env of strain 1054_07_TC4_1499 (HIV-1)
[20] = molecular target: HIV-1 Env of strain 6480.v4.c25 (HIV-1)
[21] = molecular target: HIV-1 Env of strain Q461.e2 (HIV-1)
[22] = molecular target: HIV-1 Env of strain R1166.c01 (HIV-1)
[23] = molecular target: HIV-1 strain Ce703010054_2A2 envelope (gp120) (HIV-1)
[24] = molecular target: HIV-1 strain AC10.0.29 envelope (gp120) (HIV-1)
[25] = molecular target: HIV-1 strain WEAU_d15_410_787 envelope (gp120) (HIV-1)
[26] = molecular target: HIV-1 strain WITO4160.33 envelope (gp120) (HIV-1)
[27] = molecular target: HIV-1 strain 1056_10_TA11_1826 envelope (gp120) (HIV-1)
[28] = molecular target: HIV-1 strain C2101.c01 envelope (gp120) (HIV-1)
[29] = molecular target: HIV-1 strain THRO4156.18 envelope (gp120) (HIV-1)
[30] = molecular target: HIV-1 strain 620345.c01 envelope (gp120) (HIV-1)
[31] = molecular target: HIV-1 strain 62357_14_D3_4589 envelope (gp120) (HIV-1)
[32] = molecular target: HIV-1 strain X1254_c3 envelope (gp120) (HIV-1)
[33] = molecular target: HIV-1 strain ZM53M.PB12 envelope (gp120) (HIV-1)
[34] = molecular target: HIV-1 strain ZM247v1(Rev-) envelope (gp120) (HIV-1)
[35] = molecular target: HIV-1 strain Du156.12 envelope (gp120) (HIV-1)
[36] = molecular target: HIV-1 strain CNE30 envelope (gp120) (HIV-1)
[37] = molecular target: HIV-1 strain TRO.11 envelope (gp120) (HIV-1)
[38] = molecular target: HIV-1 strain Ce1176_A3 envelope (gp120) (HIV-1)
[39] = molecular target: HIV-1 strain Ce0682_E4 envelope (gp120) (HIV-1)
[40] = molecular target: HIV-1 strain C1080.c03 envelope (gp120) (HIV-1)
[41] = molecular target: HIV-1 strain CNE58 envelope (gp120) (HIV-1)
[42] = molecular target: HIV-1 strain 231966.c02 envelope (gp120) (HIV-1)
[43] = molecular target: HIV-1 strain Ce2010_F5 envelope (gp120) (HIV-1)
[44] = molecular target: HIV-1 strain CNE20 envelope (gp120) (HIV-1)
[45] = molecular target: HIV-1 Env of strain 0330.v4.c3 (HIV-1)
[46] = molecular target: HIV-1 strain R2184.04 envelope (gp120) (HIV-1)
[47] = molecular target: HIV-1 strain ZM135M.PL10a envelope (gp120) (HIV-1)
[48] = molecular target: HIV-1 strain PVO.4 envelope (gp120) (HIV-1)
[49] = molecular target: HIV-1 strain 3415.v1.c1 envelope (gp120) (HIV-1)
[50] = molecular target: HIV-1 strain Du422.1 envelope (gp120) (HIV-1)

B1: NIH45-46^G54W (antibody, V domains shown)
VH: QVRLSQSGGQMKKPGESMRLSCRASGYEFLNCPINWIRLAPGRRPEWMGWLKPRWGAVNYARKFQGRVTMTRDVYSDTAFLELRSLTSDDTAVYFCTRGKYCTARDYYNWDFEHWGRGAPVTVSS
VL: EIVLTQSPATLSLSPGETAIISCRTSQSGSLAWYQQRPGQAPRLVIYSGSTRAAGIPDRFSGSRWGADYNLSISNLESGDFGVYYCQQYEFFGQGTKVQVDI
With B1 the IC50, pseudovirus neutralization [1] was 0.03 mg/L, the IC50, pseudovirus neutralization [2] was 0.002 mg/L and the IC50, pseudovirus neutralization [3] was 0.002 mg/L. For the same binder, the IC50, pseudovirus neutralization [4] was 0.001 mg/L, the IC50, pseudovirus neutralization [5] was 0.027 mg/L and the IC50, pseudovirus neutralization [6] was 0.001 mg/L. For the same binder, the IC50, pseudovirus neutralization [7] was greater than 50 mg/L, the IC50, pseudovirus neutralization [8] was greater than 50 mg/L and the IC50, pseudovirus neutralization [9] was 0.16 mg/L. It also gave an IC50, pseudovirus neutralization [10] of 0.001 mg/L, an IC50, pseudovirus neutralization [11] of 0.26 mg/L and an IC50, pseudovirus neutralization [12] of 0.001 mg/L. The IC50, pseudovirus neutralization [13] was 0.001 mg/L, the IC50, pseudovirus neutralization [14] was 0.002 mg/L and the IC50, pseudovirus neutralization [15] was greater than 50 mg/L. The IC50, pseudovirus neutralization [16] was 0.02 mg/L, the IC50, pseudovirus neutralization [17] was 0.37 mg/L and the IC50, pseudovirus neutralization [18] was 0.005 mg/L. The IC50, pseudovirus neutralization [19] was 0.04 mg/L, the IC50, pseudovirus neutralization [20] was 0.004 mg/L and the IC50, pseudovirus neutralization [21] was 0.009 mg/L. The IC50, pseudovirus neutralization [22] was 0.13 mg/L.

B2: NIH45-46^G54F IgG (antibody, name in Kabat numbering, V domains shown)
VH: QVRLSQSGGQMKKPGESMRLSCRASGYEFLNCPINWIRLAPGRRPEWMGWLKPRFGAVNYARKFQGRVTMTRDVYSDTAFLELRSLTSDDTAVYFCTRGKYCTARDYYNWDFEHWGRGAPVTVSS
VL: EIVLTQSPATLSLSPGETAIISCRTSQSGSLAWYQQRPGQAPRLVIYSGSTRAAGIPDRFSGSRWGADYNLSISNLESGDFGVYYCQQYEFFGQGTKVQVDI
Binder B2 has a neutralization IC50 [1] of 0.07 mg/L, a neutralization IC80 [23] of 0.07 mg/L and a neutralization IC50 [2] of 0.011 mg/L. The neutralization IC50 [3] was 0.004 mg/L, the neutralization IC80 [24] was 1.12 mg/L and the neutralization IC50 [4] was 0.03 mg/L. For the same binder, the neutralization IC50 [5] was 0.02 mg/L, the neutralization IC80 [25] was 0.004 mg/L and the neutralization IC50 [6] was 0.005 mg/L. The neutralization IC80 [26] was 0.14 mg/L, the neutralization IC50 [7] was greater than 50 mg/L and the neutralization IC80 [27] was 0.283 mg/L. The neutralization IC80 [28] was 0.42 mg/L, the neutralization IC80 [29] was 3.01 mg/L and the neutralization IC80 [30] was greater than 50 mg/L. It also gave a neutralization IC80 [31] of 0.14 mg/L, a neutralization IC80 [32] of 0.043 mg/L and a neutralization IC80 [33] of 0.23 mg/L. The neutralization IC50 [9] was 0.24 mg/L, the neutralization IC50 [10] was less than 0.001 mg/L and the neutralization IC80 [34] was 2.45 mg/L. The neutralization IC80 [35] was 0.019 mg/L, the neutralization IC50 [11] was 0.41 mg/L and the neutralization IC80 [36] was 0.348 mg/L. The neutralization IC50 [12] was less than 0.001 mg/L, the neutralization IC50 [13] was 0.003 mg/L and the neutralization IC80 [37] was 0.3 mg/L. It also gave a neutralization IC80 [38] of 0.83 mg/L, a neutralization IC50 [14] of 0.007 mg/L and a neutralization IC80 [39] of 0.056 mg/L. The neutralization IC50 [15] was greater than 50 mg/L, the neutralization IC80 [40] was 2.26 mg/L and the neutralization IC50 [16] was 0.06 mg/L. For the same binder, the neutralization IC80 [41] was 0.11 mg/L, the neutralization IC80 [42] was 0.24 mg/L and the neutralization IC80 [43] was 0.186 mg/L. It also gave a neutralization IC80 [44] of 3.91 mg/L, a neutralization IC50 [45] of 0.04 mg/L and a neutralization IC50 [17] of 0.56 mg/L. It also gave a neutralization IC50 [18] of 0.011 mg/L, a neutralization IC80 [46] of 0.054 mg/L and a neutralization IC80 [47] of 0.43 mg/L. For the same binder, the neutralization IC50 [19] was 0.076 mg/L, the neutralization IC50 [20] was 0.014 mg/L and the neutralization IC50 [21] was 0.03 mg/L. The neutralization IC50 [22] was 0.4 mg/L, the neutralization IC80 [48] was 0.25 mg/L and the neutralization IC80 [49] was 0.029 mg/L. For the same binder, the neutralization IC80 [50] was greater than 50 mg/L.
